These results are taken from patent US20060204492A1 (published 2006).

What is called Kd is a measure of binding affinity in units of concentration. Read a high Kd as a looser complex. For orientation: koff means a measure of how fast the partners let go of each other. As usually defined, the kon is the rate constant with which the complex forms. Low readings indicate slower complex formation, high ones faster complex formation.

Changes are numbered by the printed parent chain. Numbers in names are those of the source. Read-outs that look alike come from different tables or passages of the source.

Experiment [1] deals with T1, integrin αvβ3, purified from human placenta (human, UniProt P06756 31-1048; P05106 27-788).
T1 construct: mature; Native heterodimer, immobilized on ELISA plates or on the BIAcore chip; biotinylated in capture lift and capture ELISA screens; also called αvβ3 receptor; vitronectin receptor
T1 sequence (P06756 31-1048, form in doubt, chain 1 of 2): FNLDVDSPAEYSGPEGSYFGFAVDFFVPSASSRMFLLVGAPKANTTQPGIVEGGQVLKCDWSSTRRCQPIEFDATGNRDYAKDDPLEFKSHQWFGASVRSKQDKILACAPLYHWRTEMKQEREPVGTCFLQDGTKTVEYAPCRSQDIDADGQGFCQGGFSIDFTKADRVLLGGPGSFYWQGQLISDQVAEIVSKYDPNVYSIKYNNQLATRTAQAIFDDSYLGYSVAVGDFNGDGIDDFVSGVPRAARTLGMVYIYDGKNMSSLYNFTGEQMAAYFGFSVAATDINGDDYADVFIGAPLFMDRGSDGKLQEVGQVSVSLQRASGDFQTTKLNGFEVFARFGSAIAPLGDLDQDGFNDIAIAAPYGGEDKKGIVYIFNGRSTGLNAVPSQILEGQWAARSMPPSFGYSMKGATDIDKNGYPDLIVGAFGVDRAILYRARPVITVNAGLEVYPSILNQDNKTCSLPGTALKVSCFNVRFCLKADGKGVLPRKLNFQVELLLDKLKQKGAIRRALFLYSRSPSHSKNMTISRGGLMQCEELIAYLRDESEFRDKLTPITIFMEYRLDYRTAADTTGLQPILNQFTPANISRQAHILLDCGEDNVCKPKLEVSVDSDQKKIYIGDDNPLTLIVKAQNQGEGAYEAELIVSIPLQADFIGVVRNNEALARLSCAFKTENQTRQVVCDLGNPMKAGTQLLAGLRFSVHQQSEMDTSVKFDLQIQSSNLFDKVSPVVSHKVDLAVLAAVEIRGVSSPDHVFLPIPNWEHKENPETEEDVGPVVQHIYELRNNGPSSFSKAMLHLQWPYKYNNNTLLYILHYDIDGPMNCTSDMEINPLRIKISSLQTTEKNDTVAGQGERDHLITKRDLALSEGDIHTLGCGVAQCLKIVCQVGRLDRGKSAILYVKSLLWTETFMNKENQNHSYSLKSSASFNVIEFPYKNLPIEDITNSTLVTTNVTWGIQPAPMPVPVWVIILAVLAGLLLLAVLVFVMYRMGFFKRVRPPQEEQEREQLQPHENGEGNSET
T1 sequence (P05106 27-788, form in doubt, chain 2 of 2): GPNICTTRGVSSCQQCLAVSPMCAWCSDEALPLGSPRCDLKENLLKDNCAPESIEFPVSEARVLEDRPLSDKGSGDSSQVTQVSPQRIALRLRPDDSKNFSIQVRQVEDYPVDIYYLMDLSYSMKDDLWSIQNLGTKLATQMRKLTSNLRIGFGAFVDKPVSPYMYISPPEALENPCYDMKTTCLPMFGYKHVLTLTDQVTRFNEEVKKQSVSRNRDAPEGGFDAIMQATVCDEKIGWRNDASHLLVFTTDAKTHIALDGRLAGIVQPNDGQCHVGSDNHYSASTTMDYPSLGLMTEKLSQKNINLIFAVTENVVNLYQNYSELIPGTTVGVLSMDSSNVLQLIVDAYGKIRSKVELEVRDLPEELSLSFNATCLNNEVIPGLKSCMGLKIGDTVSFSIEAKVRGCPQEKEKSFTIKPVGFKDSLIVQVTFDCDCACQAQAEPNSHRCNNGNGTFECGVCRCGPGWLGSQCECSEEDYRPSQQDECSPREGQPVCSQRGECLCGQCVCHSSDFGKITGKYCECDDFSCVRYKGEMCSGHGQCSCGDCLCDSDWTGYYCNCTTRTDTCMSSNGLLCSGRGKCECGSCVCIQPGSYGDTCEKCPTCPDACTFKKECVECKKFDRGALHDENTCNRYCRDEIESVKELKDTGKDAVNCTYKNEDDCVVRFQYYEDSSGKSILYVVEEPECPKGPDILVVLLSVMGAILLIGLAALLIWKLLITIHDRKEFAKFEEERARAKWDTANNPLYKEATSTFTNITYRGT
Briefly: SPR (BIAcore), purified Fab over immobilized αvβ3.
Method: (§1) The affinities of select variants were further characterized by utilizing surface plasmon resonance (BIAcore) to measure the association and dissociation rates of purified Fab with immobilized αᵥβ₃. […] To obtain association rate constants (kₒₙ), the binding rate at five different Fab concentrations, ranging from 5-40 μg/ml in 50 mM Tris-HCl, pH 7.4, 100 mM NaCl, 2 mM CaCl₂, and 1 mM MgCl₂, was determined at a flow rate of 10 μl/min. Dissociation rate constants (koff) were the average of five measurements obtained by analyzing the dissociation phase at an increased flow rate (40 μl/min). Sensorgrams were analyzed with the BIAevaluation 2.1 program (Pharmacia). Residual Fab was removed after each measurement with 10 mM HCl, 2 mM CaCl₂ and 1 mM MgCl₂.

Experiment [2] deals with T1, integrin αvβ3, purified from human …. The experiment can be described thus: SPR (BIAcore), purified Fab over immobilized αvβ3. The source holds these as a separate data set. (In general: In SPR one partner is held on a chip, and binding of the other changes the refractive index at the surface.)
Method: as §1
For experiment [3] the target is unchanged. Briefly: ELISA titration of Fab on immobilized αvβ3.
Method: Just prior to use, the plates were washed two times and were then incubated 1 h at 25° C. with various dilutions of Fab. […] All dilutions and washes were in 50 mM Tris-HCl, pH 7.4, 100 mM NaCl, 2 mM CaCl₂, and 1 mM MgCl₂.
For experiment [4] the target is unchanged. Briefly: SPR (BIAcore), purified Fab over immobilized αvβ3. The source holds these as a separate data set.

B1: LM609 grafted antibody Fab (Fab, V domains shown)
VH: QVQLVESGGGVVQPGRSLRLSCAASGFTFSSYDMSWVRQAPGKGLEWVAKVSSGGGSTYYLDTVQGRFTISRDNSKNTLYLQMNSLRAEDTAVYYCARHNYGSFAYWGQGTTVTVSS
VL: EIVLTQSPATLSLSPGERATLSCQASQSISNHLHWYQQRPGQAPRLLIRYRSQSISGIPARFSGSGSGTDFTLTISSLEPEDFAVYYCQQSGSWPHTFGGGTKVEIK
notes: Fab expressed from M13 phage vector, human kappa chain, peptide tag on the carboxyl-terminus of the heavy chain; also called LM609 grafted Fab; parent LM609 grafted antibody
In experiment [1], B1 came in with a dissociation constant (Kd) of 27.6 nM, a koff of 0.00497 s⁻¹ and an on-rate constant (kon) of 180000 M⁻¹ s⁻¹. Besides, in experiment [2], binding was characterised by a dissociation constant (Kd) of 27.6 nM, the koff worked out at 0.00497 s⁻¹ and the kon was found to be 180000 M⁻¹ s⁻¹.

B2: LM609 grafted antibody variant T92 (Fab, V domains shown)
VH: B1 VH
VL: B1 VL with G92T
notes: Fab
With B2, the “fold enhanced binding over parent LM609 grafted antibody” value (from here on “fold enhanced binding”) in experiment [3] was greater than 3 fold.

B3: LM609 grafted antibody combinatorial clone V357D (Fab, V domains shown)
VH: B1 VH with Y106D
VL: B1 VL with H32F
notes: Fab; V357D is a clone name, not a substitution
With B3, in experiment [1], the Kd amounted to 0.5 nM, the koff came to 0.00014 s⁻¹ and the kon was 279000 M⁻¹ s⁻¹. In experiment [4], the “fold enhanced affinity over parent LM609 grafted antibody” value (“fold enhanced affinity” below) was greater than 50 fold and the “fold slower dissociation rate than parent” value is greater than 10 fold.

B4: LM609 grafted antibody combinatorial clone 8F9 (Fab, V domains shown)
VH: B1 VH with L61P, Y101H, Y106S
VL: B1 VL with H96L
notes: Fab
As for B4, in experiment [1], the Kd was 0.6 nM, the koff amounted to 0.00028 s⁻¹ and the kon is 475000 M⁻¹ s⁻¹. In experiment [4], the “fold slower dissociation rate than parent” value is greater than 10 fold.

B5: LM609 grafted antibody variant M102 (Fab, V domains shown)
VH: B1 VH with Y106M
VL: B1 VL
notes: Fab
Regarding B5, in experiment [3], the “fold enhanced binding” value was greater than 3 fold.

B6: LM609 grafted antibody combinatorial clone 6H6 (Fab, V domains shown)
VH: B1 VH with Y101H, Y106S
VL: B1 VL with H96L
notes: Fab
In experiment [1], B6 had a Kd of 0.4 nM, a koff of 0.000187 s⁻¹ and a kon of 504000 M⁻¹ s⁻¹. In experiment [4], the “fold slower dissociation rate than parent” value is greater than 10 fold.

B7: LM609 grafted antibody variant K52 (Fab, V domains shown)
VH: B1 VH with S52K
VL: B1 VL
notes: Fab
Consider B7, for which the “fold enhanced binding” value in experiment [3] is greater than 3 fold. Besides, in experiment [2], the affinity, expressed as Kd, was 12.2 nM; the koff is 0.00218 s⁻¹; the kon is 178000 M⁻¹ s⁻¹.

B8: LM609 grafted antibody variant A102 (Fab, V domains shown)
VH: B1 VH with Y106A
VL: B1 VL
notes: Fab
For the molecule B8, the “fold enhanced binding” value in experiment [3] was greater than 3 fold. Also, in experiment [2], the affinity, expressed as Kd, was 8.3 nM; the koff was determined as 0.00227 s⁻¹; the kon is 275000 M⁻¹ s⁻¹.

B9: LM609 grafted antibody combinatorial clone 6G1 (Fab, V domains shown)
VH: B1 VH with L61P, Y106S
VL: B1 VL with H96L
notes: Fab
Take B9: in experiment [1], the dissociation constant Kd came to 0.7 nM, the koff was 0.00028 s⁻¹ and the kon stood at 389000 M⁻¹ s⁻¹. In experiment [4], the “fold greater association rate than parent” value fell in the range of 2 to 4 fold and the “fold slower dissociation rate than parent” value was greater than 10 fold.

B10: LM609 grafted antibody variant E102 (Fab, V domains shown)
VH: B1 VH with Y106E
VL: B1 VL
notes: Fab
B10: the “fold enhanced binding” value in experiment [3] was greater than 3 fold.

B11: LM609 grafted antibody variant T27 (Fab, V domains shown)
VH: B1 VH with F27T
VL: B1 VL
notes: Fab
With B11, the “fold enhanced binding” value in experiment [3] is greater than 3 fold.

B12: LM609 grafted antibody combinatorial clone 17 (Fab, V domains shown)
VH: B1 VH with Y106S
VL: B1 VL with H32F
notes: Fab
In experiment [1], B12 returned a Kd of 0.5 nM, an off-rate (koff) of 0.000138 s⁻¹ and a kon of 251000 M⁻¹ s⁻¹. In experiment [4], the “fold enhanced affinity” value was greater than 50 fold and the “fold slower dissociation rate than parent” value is greater than 10 fold.

B13: LM609 grafted antibody variant L30 (Fab, V domains shown)
VH: B1 VH with S30L
VL: B1 VL
notes: Fab
For the molecule B13, the “fold enhanced binding” value in experiment [3] is greater than 3 fold.

B14: LM609 grafted antibody combinatorial clone 6D1 (Fab, V domains shown)
VH: B1 VH with L61P, A105Y, Y106S
VL: B1 VL with H96L
notes: Fab
In experiment [1], B14 registered a dissociation constant (Kd) of 0.4 nM, a koff of 0.000158 s⁻¹ and a kon of 410000 M⁻¹ s⁻¹. Further, the “fold slower dissociation rate than parent” value in experiment [4] was greater than 10 fold.

B15: LM609 grafted antibody combinatorial clone C37 (Fab, V domains shown)
VH: B1 VH with A105Y, Y106E
VL: B1 VL with H96L
notes: Fab
With B15, in experiment [1], the affinity, expressed as Kd, was 0.3 nM; the off-rate (koff) turned out to be 0.000147 s⁻¹; the association rate constant (kon) turned out to be 448000 M⁻¹ s⁻¹. In experiment [4], the “fold greater affinity than LM609 grafted antibody Fab” value was roughly 90 fold, the “fold greater affinity than parent LM609 grafted antibody” value was 92 fold and the “fold slower dissociation rate than parent” value is greater than 10 fold.

B16: LM609 grafted antibody combinatorial clone 7 (Fab, V domains shown)
VH: B1 VH with L61P, Y101H, Y106S
VL: B1 VL with H32F
notes: Fab
In experiment [1], B16 registered a Kd of 1.2 nM, a koff of 0.000236 s⁻¹ and a kon of 204000 M⁻¹ s⁻¹. Besides, in experiment [4], the “fold slower dissociation rate than parent” value was greater than 10 fold.

B17: LM609 grafted antibody combinatorial clone 56 (Fab, V domains shown)
VH: B1 VH with L61P, Y106S
VL: B1 VL with H32F
notes: Fab
In experiment [1], B17 came in with a Kd of 0.5 nM, a koff of 0.000135 s⁻¹ and a kon of 266000 M⁻¹ s⁻¹. In addition, the “fold slower dissociation rate than parent” value in experiment [4] was greater than 10 fold.

B18: LM609 grafted antibody variant Q96 (Fab, V domains shown)
VH: B1 VH
VL: B1 VL with H96Q
notes: Fab
Turning to B18, the “fold enhanced binding” value in experiment [3] was greater than 3 fold.

B19: LM609 grafted antibody combinatorial clone C29 (Fab, V domains shown)
VH: B1 VH with L61P, Y101H, A105Y, Y106S
VL: B1 VL with H96L
notes: Fab
In experiment [1], B19 gave a Kd of 0.5 nM, a koff of 0.000343 s⁻¹ and a kon of 675000 M⁻¹ s⁻¹. Moreover, in experiment [4], the “fold greater affinity than parent LM609 grafted antibody” value was roughly 55 fold, the “fold greater association rate than parent” value lay in the range of 2 to 4 fold and the “fold slower dissociation rate than parent” value is greater than 10 fold.

B20: LM609 grafted antibody variant E64 (Fab, V domains shown)
VH: B1 VH with Q65E
VL: B1 VL
notes: Fab
For the molecule B20, the “fold enhanced binding” value in experiment [3] was greater than 3 fold.

B21: LM609 grafted antibody variant S51 (Fab, V domains shown)
VH: B1 VH
VL: B1 VL with R51S
notes: Fab
For B21, the “fold enhanced binding” value in experiment [3] is greater than 3 fold.

B22: LM609 grafted antibody variant D102 (Fab, V domains shown)
VH: B1 VH with Y106D
VL: B1 VL
notes: Fab
In the case of B22, the “fold enhanced binding” value in experiment [3] was greater than 3 fold. In experiment [2], this molecule had a dissociation constant (Kd) of 3.5 nM, a koff of 0.00097 s⁻¹ and a kon of 276000 M⁻¹ s⁻¹.

B23: LM609 grafted antibody combinatorial clone C176 (Fab, V domains shown)
VH: B1 VH with L61P, Y106T
VL: B1 VL with H32F
notes: Fab
In experiment [1], B23 came in with a Kd of 0.9 nM, a koff of 0.000192 s⁻¹ and an association rate constant (kon) of 225000 M⁻¹ s⁻¹. Also, the “fold slower dissociation rate than parent” value in experiment [4] was greater than 10 fold.

B24: LM609 grafted antibody combinatorial clone C119 (Fab, V domains shown)
VH: B1 VH with L61P, Y106S
VL: B1 VL with G92N
notes: Fab
In experiment [1], B24 gave a Kd of 1.5 nM, a koff of 0.000316 s⁻¹ and a kon of 215000 M⁻¹ s⁻¹. Besides, in experiment [4], the “fold greater affinity than parent LM609 grafted antibody” value was 18 fold and the “fold slower dissociation rate than parent” value is greater than 10 fold.

B25: LM609 grafted antibody combinatorial clone C59 (Fab, V domains shown)
VH: B1 VH with L61P, Y106D
VL: B1 VL with H32F
notes: Fab
With B25, in experiment [1], the Kd came out at 0.5 nM, the koff came out at 0.000137 s⁻¹ and the association rate constant (kon) was 265000 M⁻¹ s⁻¹. Also, the “fold slower dissociation rate than parent” value in experiment [4] was greater than 10 fold.

B26: LM609 grafted antibody combinatorial clone 2G4 (Fab, V domains shown)
VH: B1 VH with Y106S
VL: B1 VL with H96L
notes: Fab
In experiment [1], B26 had a Kd of 0.4 nM, a koff of 0.000229 s⁻¹ and a kon of 603000 M⁻¹ s⁻¹. Also, in experiment [4], the “fold enhanced affinity” value is greater than 50 fold and the “fold slower dissociation rate than parent” value was greater than 10 fold.

B27: LM609 grafted antibody variant W29 (Fab, V domains shown)
VH: B1 VH with F29W
VL: B1 VL
notes: Fab
As to B27, the “fold enhanced binding” value in experiment [3] was greater than 3 fold.

B28: LM609 grafted antibody variant D101 (Fab, V domains shown)
VH: B1 VH with A105D
VL: B1 VL
notes: Fab
Regarding B28, the “fold enhanced binding” value in experiment [3] is greater than 3 fold.
